Results published in patent US20170314036A1 (AGRESEARCH, published 2017).

Tests used:
[1] = target: T1, Y2H PPD1-AD (Arabidopsis PPD1 full length with N-terminal GAL4 activation domain; pDEST22-PPD1) (Arabidopsis); test: yeast two-hybrid (legend of FIG. 6)
T1 construct: Prey fusion in yeast; The legend says only 'PPD'; also called PPD1 fused to AD
T1 chain: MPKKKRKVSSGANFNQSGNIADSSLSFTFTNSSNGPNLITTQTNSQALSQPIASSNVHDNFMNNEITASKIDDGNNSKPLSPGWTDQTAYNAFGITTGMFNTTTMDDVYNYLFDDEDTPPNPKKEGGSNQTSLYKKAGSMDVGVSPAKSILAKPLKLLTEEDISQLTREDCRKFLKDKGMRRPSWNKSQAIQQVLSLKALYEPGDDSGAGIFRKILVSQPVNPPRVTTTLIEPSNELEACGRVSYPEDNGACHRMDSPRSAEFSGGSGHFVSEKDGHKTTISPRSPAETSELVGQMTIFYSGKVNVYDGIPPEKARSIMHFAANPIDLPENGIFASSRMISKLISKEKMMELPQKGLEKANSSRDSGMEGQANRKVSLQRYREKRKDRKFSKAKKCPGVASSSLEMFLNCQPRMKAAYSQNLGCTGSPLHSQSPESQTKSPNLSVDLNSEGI
Method: (§1) The ProQuest two-hybrid system (Invitrogen) was used to analyse interactions between PPD1, NINJA, TPL, and BZR1. Combinations of bait and prey constructs were used to co-transform yeast strain MaV203 (Invitrogen), with selection on synthetic dropout (SD) SD/-Leu/-Trp agar plates. Transformed strains were tested for interactions using 10 μl droplets of 1 in 10 and 1 in 100 dilutions on SD/-Leu/-Trp/-His plates with different concentrations of 3-aminotriazol (3-AT) (Sigma).

[2] = target: T2, Y2H RGA1-AD (DELLA protein RGA1 with GAL4 activation domain); test: yeast two-hybrid, PPD1-DBD as bait, selective medium with 15 mM 3AT
T2 construct: Prey fusion in yeast, tested with PPD1-DBD as bait
T2 chain: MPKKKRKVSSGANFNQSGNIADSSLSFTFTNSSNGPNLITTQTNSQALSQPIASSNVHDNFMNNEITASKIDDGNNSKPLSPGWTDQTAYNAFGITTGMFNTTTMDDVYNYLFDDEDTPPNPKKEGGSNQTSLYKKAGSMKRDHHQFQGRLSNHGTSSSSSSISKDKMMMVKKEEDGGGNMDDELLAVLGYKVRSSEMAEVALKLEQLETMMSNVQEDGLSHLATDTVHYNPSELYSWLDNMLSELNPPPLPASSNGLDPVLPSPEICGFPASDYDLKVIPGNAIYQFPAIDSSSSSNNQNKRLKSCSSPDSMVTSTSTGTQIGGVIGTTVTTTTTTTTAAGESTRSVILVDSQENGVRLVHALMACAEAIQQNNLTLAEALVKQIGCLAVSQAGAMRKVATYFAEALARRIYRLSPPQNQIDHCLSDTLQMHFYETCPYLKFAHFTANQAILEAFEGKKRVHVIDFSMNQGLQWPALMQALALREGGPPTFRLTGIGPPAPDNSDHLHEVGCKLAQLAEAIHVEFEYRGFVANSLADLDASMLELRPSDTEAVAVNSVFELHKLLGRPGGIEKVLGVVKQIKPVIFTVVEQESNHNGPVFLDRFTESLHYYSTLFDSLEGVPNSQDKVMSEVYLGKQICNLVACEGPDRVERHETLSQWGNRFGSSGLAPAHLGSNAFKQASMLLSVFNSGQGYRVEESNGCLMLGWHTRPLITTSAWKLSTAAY
Source text: The ProQuest two-hybrid system (Invitrogen) was used to analyse interactions between PPD1, and RGA1. Full length coding sequences of PPD1, together with truncation or deletion derivatives of PPD1 (PPD1Δppd, PPD1Δtify, and PPD1Δjas*) (FIG. 5), were Gateway sub-cloned into pDEST32 (N-terminal GAL4DBD) or pDEST22 (N-terminal GAL4AD). When translated these generated the following peptide sequences: 55, 65, 66, 67, 68, 7169, which are PPD1-DBD, RGA1, RGA1-AD, PPD1-ppd-DBD, PPD1-tify-DBD, PP1-jas*-DBD respectively.
Combinations of bait and prey constructs were used to co-transform yeast strain MaV203 (Invitrogen), with selection on synthetic dropout (SD) SD/-Leu/-Trp agar plates. Transformed strains were tested for interactions using 10 μl droplets of 1 in 10 and 1 in 100 dilutions on SD/-Leu/-Trp/-His plates with different concentrations of 3-aminotriazol (3-AT) (Sigma). The PPD1-RGA1 interaction was tested with PPD1-DBD used as bait. Transformed yeast was spotted as a ten-fold dilution on control medium (−2) or selective medium (−3) with 15 mM 3AT. Controls were empty vectors, DBD, GAL4 DNA binding domain, AD, GAL4 activation domain (FIG. 5).

[3] = target: T3, Y2H BZR1-AD (Arabidopsis BZR1, At1g75080, full length, with N-terminal GAL4 activation domain; pDEST22-BZR1) (Arabidopsis); test: yeast two-hybrid (ProQuest, MaV203, SD/-Leu/-Trp/-His with 3-AT)
T3 construct: Prey fusion in yeast; also called BZR1 fused to AD; Brassinazole Resistant 1
T3 chain: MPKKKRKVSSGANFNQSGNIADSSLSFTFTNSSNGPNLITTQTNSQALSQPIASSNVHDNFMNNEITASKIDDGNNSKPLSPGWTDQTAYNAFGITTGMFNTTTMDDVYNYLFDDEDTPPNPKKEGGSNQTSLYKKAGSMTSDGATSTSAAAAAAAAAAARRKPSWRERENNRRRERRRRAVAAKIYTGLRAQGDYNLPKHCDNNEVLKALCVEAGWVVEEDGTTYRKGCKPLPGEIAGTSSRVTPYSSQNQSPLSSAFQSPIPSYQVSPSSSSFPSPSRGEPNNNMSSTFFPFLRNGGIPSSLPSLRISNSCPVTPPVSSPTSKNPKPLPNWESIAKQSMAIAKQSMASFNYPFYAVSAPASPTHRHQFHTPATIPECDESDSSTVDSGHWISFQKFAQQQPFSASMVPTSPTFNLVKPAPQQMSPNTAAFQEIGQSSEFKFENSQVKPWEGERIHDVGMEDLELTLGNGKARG
Method: as §1

[4] = target: T4, Y2H NINJA-AD (Arabidopsis NINJA, At4g28910, full length, with N-terminal GAL4 activation domain); … (Arabidopsis); test: yeast two-hybrid (legend of FIG. 7)
T4 construct: Prey fusion in yeast; also called NINJA fused to AD
T4 chain: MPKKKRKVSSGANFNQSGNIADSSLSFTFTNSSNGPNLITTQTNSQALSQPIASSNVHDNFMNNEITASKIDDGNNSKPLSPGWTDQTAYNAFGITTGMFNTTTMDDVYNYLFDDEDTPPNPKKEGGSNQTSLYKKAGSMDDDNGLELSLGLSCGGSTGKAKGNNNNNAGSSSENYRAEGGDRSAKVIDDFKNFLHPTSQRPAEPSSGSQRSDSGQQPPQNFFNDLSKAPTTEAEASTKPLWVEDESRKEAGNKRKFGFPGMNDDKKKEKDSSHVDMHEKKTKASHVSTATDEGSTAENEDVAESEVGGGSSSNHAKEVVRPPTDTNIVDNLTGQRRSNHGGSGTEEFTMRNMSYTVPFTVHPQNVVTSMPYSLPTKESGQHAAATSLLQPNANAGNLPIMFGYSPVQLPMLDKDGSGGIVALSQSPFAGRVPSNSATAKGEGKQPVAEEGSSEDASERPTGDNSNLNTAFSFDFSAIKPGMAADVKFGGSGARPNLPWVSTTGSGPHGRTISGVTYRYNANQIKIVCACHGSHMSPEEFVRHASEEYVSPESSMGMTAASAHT
Method: as §1

[5] = target: T4, Y2H NINJA-AD (Arabidopsis NINJA, …); test: yeast two-hybrid (legend of FIG. 6)
Method: as §1

[6] = target: T3, Y2H BZR1-AD (Arabidopsis BZR1, …); test: yeast two-hybrid (legend of FIG. 7)
Method: as §1

B1: Y2H PPD1-DBD (Arabidopsis PPD1, At4g14713, full length, with N-terminal GAL4 DNA binding domain; pDEST32-PPD1) (other)
chain: MKLLSSIEEACNICRLKKLKCSKEKPKCAKCLKNNWECRYSPKTKRSPLTRAHLTEVESRLERLEQLFLLIFPRENLNMILKMDSLQDIKALLTGLFVQDNVNKDAVTDRLASVETDMPLTLRQHRISATSSSEESSNKGQRQLTVSSRSNQTSLYKKAGSMDVGVSPAKSILAKPLKLLTEEDISQLTREDCRKFLKDKGMRRPSWNKSQAIQQVLSLKALYEPGDDSGAGIFRKILVSQPVNPPRVTTTLIEPSNELEACGRVSYPEDNGACHRMDSPRSAEFSGGSGHFVSEKDGHKTTISPRSPAETSELVGQMTIFYSGKVNVYDGIPPEKARSIMHFAANPIDLPENGIFASSRMISKLISKEKMMELPQKGLEKANSSRDSGMEGQANRKVSLQRYREKRKDRKFSKAKKCPGVASSSLEMFLNCQPRMKAAYSQNLGCTGSPLHSQSPESQTKSPNLSVDLNSEGI
notes: Bait fusion expressed in yeast strain MaV203 (ProQuest two-hybrid system); also called PPD1 fused to DBD; PPD1 bait
binding result [1]: binds
binding result [2]: binds
binding result [3]: no binding
binding result [4]: binds

B2: Y2H TPL-DBD (Arabidopsis TOPLESS, At1g15750, full length, with N-terminal GAL4 DNA binding domain; pDEST32-TPL) (other)
chain: MKLLSSIEEACNICRLKKLKCSKEKPKCAKCLKNNWECRYSPKTKRSPLTRAHLTEVESRLERLEQLFLLIFPRENLNMILKMDSLQDIKALLTGLFVQDNVNKDAVTDRLASVETDMPLTLRQHRISATSSSEESSNKGQRQLTVSSRSNQTSLYKKAGSMSSLSRELVFLILQFLDEEKFKETVHKLEQESGFFFNMKYFEDEVHNGNWDEVEKYLSGFTKVDDNRYSMKIFFEIRKQKYLEALDKHDRPKAVDILVKDLKVFSTFNEELFKEITQLLTLENFRENEQLSKYGDTKSARAIMLVELKKLIEANPLFRDKLQFPTLRNSRLRTLINQSLNWQHQLCKNPRPNPDIKTLFVDHSCGPPNGARAPSPVNNPLLGGIPKAGGFPPLGAHGPFQPTASPVPTPLAGWMSSPSSVPHPAVSAGAIALGGPSIPAALKHPRTPPTNASLDYPSADSEHVSKRTRPMGISDEVNLGVNMLPMSFSGQAHGHSPAFKAPDDLPKTVARTLSQGSSPMSMDFHPIKQTLLLVGTNVGDIGLWEVGSRERLVQKTFKVWDLSKCSMPLQAALVKEPVVSVNRVIWSPDGSLFGVAYSRHIVQLYSYHGGEDMRQHLEIDAHVGGVNDISFSTPNKQLCVITCGDDKTIKVWDAATGVKRHTFEGHEAPVYSVCPHYKENIQFIFSTALDGKIKAWLYDNMGSRVDYDAPGRWCTTMAYSADGTRLFSCGTSKDGESFIVEWNESEGAVKRTYQGFHKRSLGVVQFDTTKNRYLAAGDDFSIKFWDMDAVQLLTAIDGDGGLQASPRIRFNKEGSLLAVSGNENVIKIMANSDGLRLLHTFENISSESSKPAINSIAAAAAAAATSAGHADRSANVVSIQGMNGDSRNMVDVKPVITEESNDKSKIWKLTEVSEPSQCRSLRLPENLRVAKISRLIFTNSGNAILALASNAIHLLWKWQRNERNATGKATASLPPQQWQPASGILMTNDVAETNPEEAVPCFALSKNDSYVMSASGGKISLFNMMTFKTMATFMPPPPAATFLAFHPQDNNIIAIGMDDSTIQIYNVRVDEVKSKLKGHSKRITGLAFSNVLNVLVSSGADAQLCVWNTDGWEKQRSKVLPLPQGRPNSAPSDTRVQFHQDQAHFLVVHETQLAIYETTKLECMKQWAVRESLAPITHATFSCDSQLVYASFMDATVCVFSSANLRLRCRVNPSAYLPASLSNSNVHPLVIAAHPQEPNMFAVGLSDGGVHIFEPLESEGKWGVAPPAENGSASGAPTAPSVGASASDQPQR
notes: Bait fusion in yeast; also called TPL fused to DBD
binding result [5]: binds
binding result [6]: binds
